Usually EC50 stands for the concentration at which the effect is half-maximal. The low end stands for higher potency in that assay, the high end for lower potency in that assay.

These results are taken from patent US20210269545A1.

The target of assay [1] is CD38 on cells (human) (UniProt P28907). The assay is described as follows: flow cytometry, Raji cells expressing CD19 and CD38. (In general: Flow cytometry measures light scatter and fluorescence of single cells or particles in a stream.)
For assay [2] the target is unchanged. The description is as above. This is another data set of the same source.
For assay [3] the target is unchanged. The assay is described as follows: flow cytometry, Raji cells; adjusted fit with the top asymptote fixed at about the maximum response of Darzalex.
The next assay addresses CD19 on cells (human) (UniProt P15391). The assay is described as follows: flow cytometry, Raji cells expressing CD19 and CD38 (negative control).
The target in assay [4] is CD38 on cells (human) (UniProt P28907). Described as above.

Chain of CD19 on cells (human) (P15391 20-556): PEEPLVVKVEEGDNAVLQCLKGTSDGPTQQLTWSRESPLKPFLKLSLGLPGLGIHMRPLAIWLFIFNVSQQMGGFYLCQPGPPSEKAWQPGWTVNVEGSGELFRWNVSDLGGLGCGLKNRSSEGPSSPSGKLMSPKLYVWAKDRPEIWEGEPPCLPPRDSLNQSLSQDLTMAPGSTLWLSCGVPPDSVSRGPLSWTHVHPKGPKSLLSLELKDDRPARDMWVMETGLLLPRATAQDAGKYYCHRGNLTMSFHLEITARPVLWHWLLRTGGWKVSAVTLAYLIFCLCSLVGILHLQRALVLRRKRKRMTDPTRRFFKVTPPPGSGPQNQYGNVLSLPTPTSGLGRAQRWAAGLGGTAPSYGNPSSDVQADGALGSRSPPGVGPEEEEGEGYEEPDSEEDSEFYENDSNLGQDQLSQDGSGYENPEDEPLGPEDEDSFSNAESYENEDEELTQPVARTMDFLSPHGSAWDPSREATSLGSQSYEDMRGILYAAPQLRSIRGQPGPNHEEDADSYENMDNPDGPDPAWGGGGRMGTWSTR

Turning to Darzalex (antibody), the EC50 with CD38 on cells (human) [1] stood at 0.195 µg/mL; with CD38 on cells (human) [2] it was 1.27 nM; in the assay with CD38 on cells (human) [3] it was 1.27 nM. This substance displayed a Max MFI with CD38 on cells (human) [1] of 4.02e+06 MFI.

On to IgG1 isotype control (antibody), for which, in the assay with CD19 on cells (human), the EC50 amounted to 4620 µg/mL and the Max MFI is 38700 MFI. Further, in the assay with CD38 on cells (human) [4], the EC50 came out at 4620 µg/mL and the Max MFI came to 38700 MFI.
